This is an account of results in patent US20100098696A1.

Assay [1] addresses Murine FGFR-3(IIIc) expressed on L6 cells (murine) (UniProt Q61851). Put plainly: fluorescent antibody 200 nM on FGFR-3 transfected L6 cells, 1 h at 4° C., Odyssey imaging.
For assay [2] the target is unchanged. Put plainly: fluorescent antibody 200 nM on FGFR-3 transfected L6 cells, 1 h at 37° C., Odyssey imaging.
For assay [3] the target is unchanged. Put plainly: fluorescent antibody 200 nM on FGFR-3 transfected L6 cells, 1 h at 37° C. followed by acid stripping, Odyssey imaging.
Assay [4] has the same target. Put plainly: fluorescent antibody 200 nM on FGFR-3 transfected L6 cells, 1 h at 4° C. followed by acid stripping, Odyssey imaging.

Chain of Murine FGFR-3(IIIc) expressed on L6 cells (murine) (Q61851 21-801): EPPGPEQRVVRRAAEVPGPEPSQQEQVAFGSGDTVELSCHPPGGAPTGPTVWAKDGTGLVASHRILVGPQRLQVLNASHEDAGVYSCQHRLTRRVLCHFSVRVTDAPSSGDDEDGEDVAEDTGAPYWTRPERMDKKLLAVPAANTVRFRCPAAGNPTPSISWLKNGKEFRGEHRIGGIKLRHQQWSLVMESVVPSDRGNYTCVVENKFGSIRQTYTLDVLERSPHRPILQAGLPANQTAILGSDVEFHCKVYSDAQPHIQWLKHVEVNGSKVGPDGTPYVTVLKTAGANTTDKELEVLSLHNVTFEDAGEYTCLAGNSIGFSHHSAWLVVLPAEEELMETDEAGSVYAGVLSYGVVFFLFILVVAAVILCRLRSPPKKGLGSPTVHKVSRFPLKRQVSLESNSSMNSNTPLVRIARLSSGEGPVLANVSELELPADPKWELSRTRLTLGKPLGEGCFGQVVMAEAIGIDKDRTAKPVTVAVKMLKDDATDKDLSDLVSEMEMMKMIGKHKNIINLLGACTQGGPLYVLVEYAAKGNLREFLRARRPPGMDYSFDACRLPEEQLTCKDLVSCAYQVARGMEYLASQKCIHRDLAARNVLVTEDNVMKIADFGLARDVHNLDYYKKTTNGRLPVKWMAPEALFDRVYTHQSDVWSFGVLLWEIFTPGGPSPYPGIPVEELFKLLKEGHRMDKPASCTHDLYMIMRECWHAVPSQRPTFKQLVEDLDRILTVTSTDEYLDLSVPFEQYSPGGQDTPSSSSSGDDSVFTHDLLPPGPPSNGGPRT

In the case of “isotype-matched non-specific control antibody”, the relative fluorescent intensity in assay [1] came out at 1.5; in assay [2], 1.1; in assay [3], 1; in assay [4], 0.6.
